In publication PMC7432810:

Tests used:
[1] = target: Cx36-DsRed (Rattus norvegicus) (UniProt O70610); assay: FRET or BRET; acceptor photobleaching FRET in double transfected Neuro 2a cells fixed with 4% paraformaldehyde; ECFP donor, DsRed acceptor; threshold 1.7% (10 nm); cells untreated or treated before with 2 uM ionomycin or 24 uM BAPTA-AM (10 min), 5 ug/mL BFA (6 h) or 50 uM Dynasore (1 h)
[2] = target: Cx36-ECFP (Rattus norvegicus) (UniProt O70610); assay: as above

| FRET efficiency [1] | FRET efficiency [2] | FRET efficiency (cells treated with 2 uM ionomycin) [2] | FRET efficiency (cells treated with BFA for 6 h) [2] | FRET efficiency (no treatment, control of the Dynasore experiment) [2] | Substance |
| --- | --- | --- | --- | --- | --- |
| 5.94 | – | – | – | – | Cav-1-ECFP (natural protein) |
| – | 5.73 | 7.33 | 3.76 | 4 | Cav-1-DsRed (natural protein) |
